Here are results for 1 molecule from patent publication US20220146501A1.

For test [1], the target named is anti-C-reactive protein antibody (MAB-1). The test can be described thus: TR-FRET competition; labeled anti-CRP MAB-1 with labeled CRP as tracer; unlabeled CRP calibrator at 8.1 mg/L.
Test [2] has the same target. Put plainly: TR-FRET competition, acceptor emission; unlabeled CRP calibrator at 60.5 mg/L. For orientation: TR-FRET usually uses a lanthanide donor and a delayed reading to cut background.
Test [3] has the same target. Put plainly: TR-FRET competition; labeled anti-CRP MAB-1 with labeled CRP as tracer; unlabeled CRP calibrator at 118.7 mg/L.
The target is the same in test [4]. Put plainly: TR-FRET competition; labeled anti-CRP MAB-1 with labeled CRP as tracer; unlabeled CRP calibrator at 60.5 mg/L.
Test [5] has the same target. The test can be described thus: TR-FRET competition, acceptor emission; unlabeled CRP calibrator at 2.9 mg/L.
Test [6] shares this target. The test can be described thus: TR-FRET competition, acceptor emission; unlabeled CRP calibrator at 20.4 mg/L.
The target is the same in test [7]. The test can be described thus: TR-FRET competition, acceptor emission; unlabeled CRP calibrator at 8.1 mg/L.
The target is the same in test [8]. Put plainly: TR-FRET competition; labeled anti-CRP MAB-1 with labeled CRP as tracer; unlabeled CRP calibrator at 20.4 mg/L.
Test [9] shares this target. Put plainly: TR-FRET competition, acceptor emission; unlabeled CRP calibrator at 118.7 mg/L.
For test [10] the target is unchanged. Put plainly: TR-FRET competition; labeled anti-CRP MAB-1 with labeled CRP as tracer; unlabeled CRP calibrator at 2.9 mg/L.

B1: C-reactive protein (unlabeled analyte / calibrator) (protein)
chain: QTDMSRKAFVFPKESDTSYVSLKAPLTKPLKAFTVCLHFYTELSSTRGYSIFSYATKRQDNEILIFWSKDIGYSFTVGGSEILFEVPEVTVAPVHICTSWESASGIVEFWVDGKPRVRKSLKKGYTVGAEASIILGQEQDSFGGNFEGSQSLVGDIGNVNMWDFVLSPDEINTIYLGGPFSPNVLNWRALKYEVQGEVFTKPQLWP
As for B1, the FRETRatio in test [1] was 13100; in test [3] it was 2320; in test [4], 3980; in test [8], 8220; in test [10], 17100. In addition, the Acceptor1RFU in [2] came to 49700 RFU; in test [5], 210000 RFU; in test [6], 103000 RFU; in test [7], 162000 RFU; in [9] it was 29900 RFU.
